Assay results reported in patent US5874209.

Assays:
[1] = test system: T1, NF-IL6/LAP (wild type, C/EBP beta), P21272-2; test: cell_activity; conditions: increase in CAT transactivation with PKC alpha plus TPA, HepG2
T1 sequence: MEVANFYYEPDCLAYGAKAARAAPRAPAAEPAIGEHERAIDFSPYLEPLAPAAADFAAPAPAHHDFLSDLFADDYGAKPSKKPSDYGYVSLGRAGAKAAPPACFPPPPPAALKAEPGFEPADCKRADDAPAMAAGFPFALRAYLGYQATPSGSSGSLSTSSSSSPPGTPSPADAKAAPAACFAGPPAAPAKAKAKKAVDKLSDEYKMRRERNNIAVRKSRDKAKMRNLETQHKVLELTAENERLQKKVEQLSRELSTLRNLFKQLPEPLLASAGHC

[2] = test system: LAP(Asp105)/GAL4 chimera S105D (/ Saccharomyces cerevisiae); test: cell_activity; conditions: luciferase relative to LAP(Ser105)/GAL4

Substance	activity [1] [fold]	activity [2] [fold]
D-CAT reporter (albumin D-site)	5	–
5xGAL4-LUC reporter GAL4 sites	–	3
